Experimental findings from patent publication US20170051047A1 (CANGENE, published 2017) are described below.

As a reminder, the Kd is the equilibrium constant for the complex coming apart. A low value points to higher affinity. Usually koff stands for the rate constant with which the complex falls apart. Lower therefore signals slow dissociation. A word on the kon: it is a measure of how fast the partners come together. Higher therefore signals fast association.

Numbering of substitutions follows the chain as printed.

Sequences and labels used below:
B1: CAN20G1 (antibody, V domains shown)
VH: QIQLVQSGPELKKPGETVKISCKASGYTFTNDGMNWVKQAPGKGLKWMGWINTNTGEPTYVEEFKGRFAFSLETSASTAYLQINNLKNEDTATYFCYVNYDYYTMDCWGQGTSVTVSS
VL: QVVLTQSPAIMSASLGERVTMTCTASSSVISSYLHWYQQKPGSSPKLWIYSTSTLASGVPARFSGSGSGTSYSLTISSMEAEDAATYYCLQYHRSPRTFGGGTKLEIK
B2: CAN20G5 (antibody, V domains shown)
VH: B1 VH with T28S, D32S, Q39E, V61A, K65M, M105I, C107Y
VL: B1 VL with V2I, I30Y, S32T, T54N, L90H
B3: CAN20G8 (antibody, V domains shown)
VH: B1 VH with T28A, V61A
VL: B1 VL with T54I
B4: CDR-huCAN20G2 (antibody, V domains shown)
VH: QVQLVQSGSELKKPGASVKVSCKASGYTFTNQGMNWVRQAPGQGLEWMGWINTNTGEPTYAQGFTGRFVFSLDTSVSTAYLQISSLKAEDTAVYYCYVNYDYYTMDFWGQGTTVTVSS
VL: DIQMTQSPSSLSASVGDRVTITCRASSSVISTYLNWYQQKPGKAPKLLIYSTSSLQSGVPSRFSGSGSGTDFTLTISSLQPEDFATYYCLQYHRSPRTFGGGTKVEIK
B5: AVA-huCAN20G2 (antibody, V domains shown)
VH: B1 VH with D32Q, V61T, E62A, E63D, K65T, A76V, N85S, N88A, C107F, S113L
VL: DIQMTQSPSSLSASVGDRVTITCSASSSVISTYLNWYQQKPGKAPKVLIYSTSSLHSGVPSRFSGSGSGTDFTLTISSLQPEDFATYYCLQYHRSPRTFGQGTKVEIKR
B6: HE-huCAN20G2 (antibody, V domains shown)
VH: B1 VH with D32Q, V61T, E62A, E63D, K65T, A76V, N85S, N88A, C107F, S113L
VL: DVQLTQSPSIMSASLGDRVTMTCTASSSVISTYLHWYQQKPGSSPKLWIYSTSTLASGVPPRFSGSGSGTDYSLTISSMEPEDAATYYCLQYHRSPRTFGGGTKVEIKR
B7: CAN20G2 (antibody, V domains shown)
VH: B1 VH with L11V, D32Q, V61T, C107F
VL: B1 VL with E17D, S32T, A61P

One test deals with T1, Clostridium difficile toxin A (whole toxin A) (Clostridium difficile, UniProt P16154 1-2710).
Assay: not given
Molecule B1 had a Kd of 1.79 nM, a koff of 0.000219 s⁻¹ and a kon of 123000 M⁻¹ s⁻¹.

B2 had a Kd of 2.01 nM, a koff of 0.000168 s⁻¹ and a kon of 83800 M⁻¹ s⁻¹.

On to B3, for which the dissociation constant Kd stood at 1.65 nM, the koff amounted to 0.000216 s⁻¹ and the kon is 131000 M⁻¹ s⁻¹.

Another test deals with T1, Clostridium difficile toxin A (whole …).
Assay: not given
The source holds these as a separate data set.
Turning to B4, the affinity, expressed as Kd, was 0.8 nM; the koff is 5.41e-05 s⁻¹; the kon was 67600 M⁻¹ s⁻¹.

Regarding B5, the Kd worked out at 1.33 nM, the koff turned out to be 9.02e-05 s⁻¹ and the kon was 54500 M⁻¹ s⁻¹.

Regarding B6, the Kd was 0.332 nM, the koff amounted to 3.14e-05 s⁻¹ and the kon came out at 93900 M⁻¹ s⁻¹.

A further test deals with T2, Clostridium difficile toxin B (whole) (Clostridium difficile, UniProt P18177 2-2366).
T2 construct: mature
Description: Western blot. For orientation: In western blotting, separated proteins are transferred to a membrane and probed.
Consider B1, for which the binding result is “no binding (tested: 1 µg/ml)”.

As for B2, the binding result is reported as “no binding (tested: 1 µg/ml)”.

In the case of B3, the binding result is listed as “no binding (tested: 1 µg/ml)”.

The target in another test is T1, Clostridium difficile toxin A (whole …). Description: cell-based or functional assay.
Consider B1, for which the “EC50 Value (µg/mL), in vitro toxin A neutralization” value (from here on “EC50 Value (µg/mL)”) is 0.17 µg/mL.

Take B2: the “EC50 Value (µg/mL)” value turned out to be 0.13 µg/mL.

With B7, the “EC50 Value (µg/mL)” value was 0.0101 µg/mL.

Consider B3, for which the “EC50 Value (µg/mL)” value was 0.137 µg/mL.
